# Data from US6359194 (Takeda / Millennium, dated 2002).
# Molecular target: the molecule itself
# Assay: co-immunoprecipitation from transfected 293 cells or BAECs
# Description: The interaction of the rchd534 and fchd540 proteins, observed in yeast cells as described above, was tested in mammalian endothelial cell tissue culture. Either bovine aortic endothelial cells (BAECs) or 293 cells (human embryonic kidney cells, ATCC Accession No. CRL-1573) were transfected with constructs encoding both the rchd534 and fchd540 proteins, each fused to a different flag peptide allowing for specific immunoprecipitation. […] The co-immunoprecipitation of rchd534 and fchd540 further supports that these proteins interact in human cells that are physiologically relevant to cardiovascular disease.
protein,measurement,value
"fchd540 protein fused to a flag peptide (transfected 293 cells or BAECs) (other, human, UniProt O15105 1-426, looked up, Co-immunoprecipitation construct; not shown: flag peptide (different from that on rchd534)) MFRTKRSALVRRLWRSRAPGGEDEEEGAGGGGGGGELRGEGATDSRAHGAGGGGPGRAGCCLGKAVRGAKGHHHPHPPAAGAGAAGGAEADLKALTHSVLKKLKERQLELLLQAVESRGGTRTACLLLPGRLDCRLGPGAPAGAQPAQPPSSYSLPLLLCKVFRWPDLRHSSEVKRLCCCESYGKINPELVCCNPHHLSRLCELESPPPPYSRYPMDFLKPTADCPDAVPSSAETGGTNYLAPGGLSDSQLLLEPGDRSHWCVVAYWEEKTRVGRLYCVQEPSLDIFYDLPQGNGFCLGQLNSDNKSQLVQKVRSKIGCGIQLTREVDGVWVYNRSSYPIFIKSATLDNPDSRTLLVHKVFPGFSIKAFDYEKAYSLQRPNDHEFMQQPWTGFTVQISFVKGWGQCYTRQFISSCPCWLEVIFNSR",binding result,no binding
